Results taken from patent US20230183753A1, “Methods of in Vitro Cell Delivery” (Intellia Therapeutics, Inc., priority 2020, published 2023).
Oligonucleotides are written 5' to 3', each unit as a sugar letter and its base; * is a phosphorothioate linkage, no mark a phosphodiester; rarer units and linkages stand in square brackets, end groups in braces. Plain capitals give the bases only. m = 2'-O-methyl; r = 2'-OH (RNA)

Key:
[1] = test system: B2M, TRAC, TRBC1/2, CIITA; assay: NGS editing profile of T cells with BC22n or Cas9 mRNA, single or four guides, LNP titration, Example 16A; type: cell-based, human; details: LNP;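 also: activated T cells exposed to LNPs 72 h after activation, kept at 37 °C, harvested on day 10 post activation, editing measured by NGS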
Method: Cells were expanded in T cell basal media for 72 hours prior to LNP transfection.
LNPs were mixed to fixed total mRNA weight ratios of 6:3:2 for editor mRNA, guide RNA, and UGI mRNA respectively as described in Table 12. […] LNP mixtures were incubated for 5 minutes at 37° C. in T cell basal media substituting 6% cynomolgus monkey serum (Bioreclamation IVT, Cat. CYN220760) for fetal bovine serum.
T cells were incubated at 37° C. with 5% CO2 for the duration of the experiment.
In total, T cells were exposed to 6 different LNPs simultaneously (editor mRNA, UGI mRNA, 4 guides).

B2M, CD3, MHC II = assay: Flow cytometry of antigen negative T cells (B2M, CD3, MHC II) after BC22n or Cas9 editing, Example 16A; type: cell-based, human
From the text: Cells were subsequently washed, processed on a Cytoflex instrument (Beckman Coulter) and analyzed using the FlowJo software package. T cells were gated based on size, shape, viability, and antigen expression.

[2] = multiple guide delivery (four guides simultaneously), locus of the guide assayed, editor BC22n, total RNA 8.6 ng
[3] = multiple guide delivery (four guides simultaneously), locus of the guide assayed, editor BC22n, total RNA 17.2 ng
[4] = multiple guide delivery (four guides simultaneously), locus of the guide assayed, editor BC22n, total RNA 34.4 ng
[5] = multiple guide delivery (four guides simultaneously), locus of the guide assayed, editor BC22n, total RNA 68.8 ng
[6] = multiple guide delivery (four guides simultaneously), locus of the guide assayed, editor BC22n, total RNA 137.5 ng
[7] = multiple guide delivery (four guides simultaneously), locus of the guide assayed, editor BC22n, total RNA 275.0 ng
[8] = multiple guide delivery (four guides simultaneously), locus of the guide assayed, editor BC22n, total RNA 550.0 ng
[9] = multiple guide delivery (four guides simultaneously), locus of the guide assayed, editor Cas9, total RNA 8.6 ng
[10] = multiple guide delivery (four guides simultaneously), locus of the guide assayed, editor Cas9, total RNA 17.2 ng
[11] = multiple guide delivery (four guides simultaneously), locus of the guide assayed, editor Cas9, total RNA 34.4 ng
[12] = multiple guide delivery (four guides simultaneously), locus of the guide assayed, editor Cas9, total RNA 68.8 ng
[13] = multiple guide delivery (four guides simultaneously), locus of the guide assayed, editor Cas9, total RNA 137.5 ng
[14] = multiple guide delivery (four guides simultaneously), locus of the guide assayed, editor Cas9, total RNA 275.0 ng
[15] = multiple guide delivery (four guides simultaneously), locus of the guide assayed, editor Cas9, total RNA 550.0 ng
[16] = single guide delivery, editor BC22n, total RNA 8.6 ng
[17] = single guide delivery, editor BC22n, total RNA 17.2 ng
[18] = single guide delivery, editor BC22n, total RNA 34.4 ng
[19] = single guide delivery, editor BC22n, total RNA 68.8 ng
[20] = single guide delivery, editor BC22n, total RNA 137.5 ng
[21] = single guide delivery, editor BC22n, total RNA 275.0 ng
[22] = single guide delivery, editor BC22n, total RNA 550.0 ng
[23] = single guide delivery, editor Cas9, total RNA 8.6 ng
[24] = single guide delivery, editor Cas9, total RNA 17.2 ng
[25] = single guide delivery, editor Cas9, total RNA 34.4 ng
[26] = single guide delivery, editor Cas9, total RNA 68.8 ng
[27] = single guide delivery, editor Cas9, total RNA 137.5 ng
[28] = single guide delivery, editor Cas9, total RNA 275.0 ng
[29] = single guide delivery, editor Cas9, total RNA 550.0 ng

B1: G018117: guide targeting CIITA (SEQ ID NO: 714) (nucleic acid)
guide: mG*mC*mG*rUrCrCrArCrArUrCrCrUrGrCrArArGrGrGrGrUrUrUrUrArGrAmGmCmUmAmGmAmAmAmUmAmGmCrArArGrUrUrArArArArUrArArGrGrCrUrArGrUrCrCrGrUrUrArUrCrAmAmCmUmUmGmAmAmAmAmAmGmUmGmGmCmAmCmCmGmAmGmUmCmGmGmUmGmCmU*mU*mU*mU
B1 showed a C-to-A/G % mean [1, 2] of 3.1%, a C-to-T % mean [1, 2] of 4.6% and an Indel % mean [1, 2] of 0.8%. The C-to-A/G % mean [1, 3] was 2.9%, the C-to-T % mean [1, 3] was 10.5% and the Indel % mean [1, 3] was 1.1%. The C-to-A/G % mean [1, 4] was 2.9%, the C-to-T % mean [1, 4] was 18.8% and the Indel % mean [1, 4] was 1.6%. It also gave a C-to-A/G % mean [1, 5] of 2.7%, a C-to-T % mean [1, 5] of 35.1% and an Indel % mean [1, 5] of 1.6%. It also gave a C-to-A/G % mean [1, 6] of 2.9%, a C-to-T % mean [1, 6] of 52.9% and an Indel % mean [1, 6] of 1.5%. It also gave a C-to-A/G % mean [1, 7] of 2.5%, a C-to-T % mean [1, 7] of 71.9% and an Indel % mean [1, 7] of 1.3%. For the same molecule, the C-to-A/G % mean [1, 8] was 2.6%, the C-to-T % mean [1, 8] was 81.1% and the Indel % mean [1, 8] was 1.1%. For the same molecule, the C-to-A/G % mean [1, 9] was 2.6%, the C-to-T % mean [1, 9] was 0.2% and the Indel % mean [1, 9] was 1.4%. For the same molecule, the C-to-A/G % mean [1, 10] was 2.5%, the C-to-T % mean [1, 10] was 0.2% and the Indel % mean [1, 10] was 2.1%. The C-to-A/G % mean [1, 11] was 2.5%, the C-to-T % mean [1, 11] was 0.3% and the Indel % mean [1, 11] was 3.9%. It also gave a C-to-A/G % mean [1, 12] of 2.5%, a C-to-T % mean [1, 12] of 0.2% and an Indel % mean [1, 12] of 7.7%. For the same molecule, the C-to-A/G % mean [1, 13] was 2.2%, the C-to-T % mean [1, 13] was 0.2% and the Indel % mean [1, 13] was 13.3%. It also gave a C-to-A/G % mean [1, 14] of 1.9%, a C-to-T % mean [1, 14] of 0.1% and an Indel % mean [1, 14] of 26.7%. For the same molecule, the C-to-A/G % mean [1, 15] was 1.7%, the C-to-T % mean [1, 15] was 0.1% and the Indel % mean [1, 15] was 42.3%. It also gave a C-to-A/G % mean [1, 16] of 3.8%, a C-to-T % mean [1, 16] of 14.5% and an Indel % mean [1, 16] of 3.5%. The C-to-A/G % mean [1, 17] was 3.5%, the C-to-T % mean [1, 17] was 28.1% and the Indel % mean [1, 17] was 3.9%. It also gave a C-to-A/G % mean [1, 18] of 3.3%, a C-to-T % mean [1, 18] of 45.9% and an Indel % mean [1, 18] of 3.6%. The C-to-A/G % mean [1, 19] was 3.6%, the C-to-T % mean [1, 19] was 62.8% and the Indel % mean [1, 19] was 3.7%. The C-to-A/G % mean [1, 20] was 2.7%, the C-to-T % mean [1, 20] was 78.9% and the Indel % mean [1, 20] was 2.7%. For the same molecule, the C-to-A/G % mean [1, 21] was 2.6%, the C-to-T % mean [1, 21] was 86.3% and the Indel % mean [1, 21] was 2.0%. The C-to-A/G % mean [1, 22] was 2.6%, the C-to-T % mean [1, 22] was 92.3% and the Indel % mean [1, 22] was 1.1%. It also gave a C-to-A/G % mean [1, 23] of 2.5%, a C-to-T % mean [1, 23] of 0.3% and an Indel % mean [1, 23] of 6.0%. The C-to-A/G % mean [1, 24] was 2.4%, the C-to-T % mean [1, 24] was 0.2% and the Indel % mean [1, 24] was 11.2%. The C-to-A/G % mean [1, 25] was 2.1%, the C-to-T % mean [1, 25] was 0.2% and the Indel % mean [1, 25] was 20.8%. The C-to-A/G % mean [1, 26] was 1.9%, the C-to-T % mean [1, 26] was 0.2% and the Indel % mean [1, 26] was 33.2%. It also gave a C-to-A/G % mean [1, 27] of 1.3%, a C-to-T % mean [1, 27] of 0.1% and an Indel % mean [1, 27] of 51.2%. The C-to-A/G % mean [1, 28] was 0.9%, the C-to-T % mean [1, 28] was 0.1% and the Indel % mean [1, 28] was 64.5%. For the same molecule, the C-to-A/G % mean [1, 29] was 0.6%, the C-to-T % mean [1, 29] was 0.1% and the Indel % mean [1, 29] was 78.4%. For the same molecule, the “percent cells negative for antigen, HLA DR DP DQ neg, Mean %” value (“percent cells negative … Mean %” below) (B2M, CD3, MHC II; editor BC22n, total RNA 8.6 ng) was 41.6%, the “percent cells negative … Mean %” value (B2M, CD3, MHC II; editor BC22n, total RNA 17.2 ng) was 49.9% and the “percent cells negative … Mean %” value (B2M, CD3, MHC II; editor BC22n, total RNA 34.4 ng) was 65.8%. For the same molecule, the “percent cells negative … Mean %” value (B2M, CD3, MHC II; editor BC22n, total RNA 68.8 ng) was 74.5%, the “percent cells negative … Mean %” value (B2M, CD3, MHC II; editor BC22n, total RNA 137.5 ng) was 85.2% and the “percent cells negative … Mean %” value (B2M, CD3, MHC II; editor BC22n, total RNA 275.0 ng) was 92.5%. The “percent cells negative … Mean %” value (B2M, CD3, MHC II; editor BC22n, total RNA 550.0 ng) was 95.7%, the “percent cells negative … Mean %” value (B2M, CD3, MHC II; editor Cas9, total RNA 8.6 ng) was 34.2% and the “percent cells negative … Mean %” value (B2M, CD3, MHC II; editor Cas9, total RNA 17.2 ng) was 36.2%. For the same molecule, the “percent cells negative … Mean %” value (B2M, CD3, MHC II; editor Cas9, total RNA 34.4 ng) was 40.7%, the “percent cells negative … Mean %” value (B2M, CD3, MHC II; editor Cas9, total RNA 68.8 ng) was 48.9% and the “percent cells negative … Mean %” value (B2M, CD3, MHC II; editor Cas9, total RNA 137.5 ng) was 55.5%. The “percent cells negative … Mean %” value (B2M, CD3, MHC II; editor Cas9, total RNA 275.0 ng) was 65.6% and the “percent cells negative … Mean %” value (B2M, CD3, MHC II; editor Cas9, total RNA 550.0 ng) was 72.0%.
